Here are results for 3 molecules from patent US20140302039A1 (SAMSUNG ELECTRONICS, published 2014).

The target of the experiment is T1, hAng-1 (human, UniProt Q15389 20-498, limits assumed).
T1 construct: Used in 'the same experiment' as hAng-2 C-His in SPR
T1 sequence (looked up): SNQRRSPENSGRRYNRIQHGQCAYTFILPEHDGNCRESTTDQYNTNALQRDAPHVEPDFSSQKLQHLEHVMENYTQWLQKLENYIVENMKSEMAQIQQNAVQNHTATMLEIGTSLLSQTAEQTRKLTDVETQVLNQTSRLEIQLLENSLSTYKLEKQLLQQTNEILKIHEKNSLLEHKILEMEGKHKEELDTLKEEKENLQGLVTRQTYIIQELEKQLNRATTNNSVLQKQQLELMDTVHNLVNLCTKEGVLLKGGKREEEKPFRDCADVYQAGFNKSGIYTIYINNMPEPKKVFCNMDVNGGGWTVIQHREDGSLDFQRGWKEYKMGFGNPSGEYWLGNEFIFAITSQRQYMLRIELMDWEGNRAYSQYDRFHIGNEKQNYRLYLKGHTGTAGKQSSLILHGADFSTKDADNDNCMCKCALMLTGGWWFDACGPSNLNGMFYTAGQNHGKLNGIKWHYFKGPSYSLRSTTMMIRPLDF
Kind of experiment: SPR, BIAcore T100, antigen captured on chip, antibody from 100 nM in two-fold dilutions. On the procedure:
An anti-His antibody was immobilized to the degree of 8,000 response units (RU) on a CM5 sensor chip (GE Healthcare) using a pH 5.0 acetate solution and an amine coupling kit (GE Healthcare). Recombinant hAng-2 protein (C-His, R&D Systems) was flowed into this immobilized antibody at a concentration of 6 μg/ml to capture the antibody at 100˜200 RU. In this regard, the antibodies obtained in Reference Example 2.2.2 were serially diluted by half each time starting from 100 nM before application. […] Kd values were calculated from the measurements. The same experiment was conducted with hAng-1.
(In general: SPR reads the build-up and loss of mass on a sensor chip optically.)

B1: SAIT-ANG-2-AB-m3E2 (antibody, V domains shown)
VH: EVQLQQSGAELVKPGASVKLSCTASGFNIKDPYIHWVKQRPEQGLEWIGRIDPANGNTKYDPKFQGKATITADTSSNTAYLQLSSLTSEDTAVYYCVRRWDGGGFDYWGQGTSVTVSS
VL: DIQMTQTTSSLSASLGDRVTISCRASQDISNYLNWYQQKPDGTVKLLIYYTSRLHSGVPSRFSGSGSGTDYSLTITNLEQEDIATYFCQQGNTLPWTFGGGTKLEIK
notes: Mouse hybridoma monoclonal antibody purified on protein G
B1: the binding result is “no binding”.

B2: SAIT-ANG-2-AB-m8D3 (antibody, V domains shown)
VH: EVQLQQSGPELVKPGDSVKMSCKASGYTFTDYYMKWVRQSHGKSLQWVGEINPKNGDTFYNQIFKGKATLTVDKSSSTAYMQLTSLTSEDSAVYYCTRENDYDVGFFDYWGQGTSVTVSS
VL: TIVMTQTPKFLLVSAGDRITITCKASQSVSNDVAWYQQKPGQSPKLLIYYASNRYPGVPDRFTGSGYGTDFTFTISTVQAEDLAVYFCQQDYTSPWTFGGGTELEIK
notes: as for B1
In the case of B2, the binding result is reported as “no binding”.

B3: SAIT-ANG-2-AB-m1B6 (antibody, V domains shown)
VH: QIQLVQSGPELKKPGETVKISCKASGYTFTNYGMNWVKQAPGKGLKWMGWINTYTGEPTYADDFKGRFAFSLETSASTAYLQINNLKNEDTATYFCARDHDGYLMDYWGQGTSVTVSS
VL: DIQMTQTTSSLSASLGDRVTISCSTSQGISNYLNWYQQKPDGTVKLLIFYTSSLHSGVPSRFSGSGSGTDYSLTISNLEPEDIATYYCQQYSKLPYTFGGGTKLEIK
notes: Mouse hybridoma monoclonal antibody purified on protein G; also called SAIT-ANG-m2-AB-1B6
For the molecule B3, the binding result is recorded as “no binding”.
